# Legend:
# [1] = biological target: T1, VACV B5 protein (vaccinia virus, UniProt Q01227 20-275); assay: cell-based or functional assay
# [2] = biological target: T1, VACV B5 protein; assay: lysate ELISA
# [3] = biological target: T1, VACV B5 protein; assay: purified antigen ELISA
# [4] = biological target: T2, VACV H3 protein (vaccinia virus, UniProt P07240 1-278); assay: cell-based or functional assay
# T2 sequence: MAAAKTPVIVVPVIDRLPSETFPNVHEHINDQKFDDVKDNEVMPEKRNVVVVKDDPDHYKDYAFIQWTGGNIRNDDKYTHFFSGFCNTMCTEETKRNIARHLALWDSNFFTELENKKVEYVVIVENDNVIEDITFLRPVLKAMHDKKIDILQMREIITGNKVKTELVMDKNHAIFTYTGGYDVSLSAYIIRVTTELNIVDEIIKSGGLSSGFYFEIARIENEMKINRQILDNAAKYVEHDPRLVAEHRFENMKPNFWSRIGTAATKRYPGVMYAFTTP
# [5] = biological target: T2, VACV H3 protein; assay: lysate ELISA
# [6] = biological target: T2, VACV H3 protein; assay: purified antigen ELISA
# [7] = biological target: T3, VACV A33 protein (vaccinia virus, UniProt P68617 58-185); assay: cell-based or functional assay
# [8] = biological target: T3, VACV A33 protein; assay: lysate ELISA
# [9] = biological target: T3, VACV A33 protein; assay: purified antigen ELISA
# [10] = biological target: T4, VACV L1 protein (vaccinia virus, UniProt P07612 1-185); assay: cell-based or functional assay
# T4 sequence: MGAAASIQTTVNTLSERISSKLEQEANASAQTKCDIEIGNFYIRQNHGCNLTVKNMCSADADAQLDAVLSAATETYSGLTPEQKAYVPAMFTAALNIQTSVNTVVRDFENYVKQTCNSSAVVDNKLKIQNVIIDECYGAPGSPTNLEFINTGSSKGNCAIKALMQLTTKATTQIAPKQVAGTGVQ
# [11] = biological target: T4, VACV L1 protein; assay: purified antigen ELISA
# [12] = biological target: T5, VACV D8 protein (vaccinia virus, UniProt P04195 1-261); assay: cell-based or functional assay
# T5 sequence: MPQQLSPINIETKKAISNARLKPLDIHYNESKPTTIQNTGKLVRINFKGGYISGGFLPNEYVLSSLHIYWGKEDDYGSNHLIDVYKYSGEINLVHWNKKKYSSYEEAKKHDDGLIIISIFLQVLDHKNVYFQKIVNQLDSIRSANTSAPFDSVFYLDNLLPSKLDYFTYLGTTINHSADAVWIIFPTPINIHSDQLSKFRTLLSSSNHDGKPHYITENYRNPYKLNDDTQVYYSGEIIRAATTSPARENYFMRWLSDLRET
# [13] = biological target: T5, VACV D8 protein; assay: lysate ELISA
# [14] = biological target: T5, VACV D8 protein; assay: purified antigen ELISA
binder,measurement,setting,value
"MPXV-25 (antibody, V domains shown, human IgG1, anti-B5) V domain 1: QVQLVESGGGVVQPGRSLKISCAASGFTFSDSGLHWVRQAPGKGLECVAFIWYDGSTKYYADSVKGRFTISRDNSRNTLYLQMKSLRAEDTAVYYCARELGYCSGGTCYSMGAFDIWGQGTLVTVSQ V domain 2: QSVLTQPASVSGSPGQSITISCTGTSSDVGSYNLVSWYQQHPGKAPKLMIYEVSKRPSGVSNRFSGSKSDNTASLTISGLQAEDEADYYCCSYVGSSTSVFGGGTQVTVL","PRNT Emax, VACV EV+C'",[1],77%
same,"PRNT IC50, VACV EV+C'",[1],0.02 µg/mL
same,EC50,[2],0.066 µg/mL
same,EC50,[3],0.19 µg/mL
"VACV-314 (antibody, V domains shown, human IgG3, anti-H3) VH: QVQLVQSGPGLVKPSETLSLTCTVSGGSISSYYWSWIRQPPGKGLEYIGHIYYSGGTKYNPSLRSRVTISVDTSKNQFSLKLTSVTAADTAVYYCARLAGRKPDADSWGQGTLVTVSS VL: QPVLTQEPSLTVSPGGTVTLTCASSTGAVTSGFFPNWLQQKPGQAPRALIYSTNNKHSWTPARFSGSLLGGKAALTLSGVQPEDEAEYYCLLYYGGVVVFGGGTKLTVL","PRNT Emax, VACV MV+C'",[4],74%
same,"PRNT IC50, VACV MV+C'",[4],0.1 µg/mL
same,EC50,[5],0.003 µg/mL
same,EC50,[6],0.1 µg/mL
"MPXV-79 (antibody, V domains shown, human IgG1, anti-H3) VH: QVQLVQSGAEVKKPGASVKVSCKASGYSFRSNGISWVRQAPGQGFEWLGWIAAYNGDTKYVQKFQGRLTMTTDTSTDTAYMELWSLRSDDTAVYYCARDPKLGRKGSAFDIWGQGTLVIVSS VL: EIVLTQSPATLSLSPGGRATLSCRASQSVGNYLTWYQQKPGQAPRLLIFDGSTRATGIPARFSGSGSGTDFTLTISSLEPEDFAVYYCLQRSDLYTFGQGTKVDIK","PRNT Emax, VACV MV+C'",[4],62%
same,"PRNT IC50, VACV MV+C'",[4],4.7 µg/mL
same,EC50,[5],0.004 µg/mL
same,EC50,[6],0.06 µg/mL
"MPXV-51 (antibody, V domains shown, human IgG1, anti-A33) VH: QLQLQESGPGLVKPSETLSLSCTVSGGSINSRTYYWGWIRQPPGKGPEWIGTVFHNVSTLYTSSLRSRVTISVDTSKNRFSLKLTSVTAADTAVYFCGRLTPRNLFRGTLVRWVDPWGQGILVTVSS VL: EIVLAQSPGTLSLSPGERATLSCRASHNLNSNYLAWYQQKPGQAPRLLIYGASSRATGIPDRFTGSGSGTDFTLTISRLEPEDFAVYYCQQYAGSLTFGGGTKVDIK","PRNT Emax, VACV EV+C'",[7],50%
same,"PRNT IC50, VACV EV+C'",[7],0.1 µg/mL
same,EC50,[8],0.05 µg/mL
same,EC50,[9],0.04 µg/mL
"VACV-34 (antibody, V domains shown, human IgG1, anti-L1) VH: QVQLVESGGGLVQPGRSLRLSCAASGFTFDDYAMHWVRQAPGKGLEWVSGLSWNSGSIGYADSVKGRFTISRDNAKNSLYLQMNSLRAEDTALYYCAKETEKYYYDSSGYDYWGQGTLVTVSS VL: EIVLTQSPGTLSLSPGERATLSCRASQSVSSIYLAWYQQKPGQAPRLLIYGASSRATGIPDRFSGSGSGTDFTLTISRLEPEDFAVYYCQQYGSRGTFGQGTKLEIK","PRNT Emax, VACV MV",[10],76%
same,"PRNT Emax, VACV MV+C'",[10],78%
same,"PRNT IC50, VACV MV",[10],3.3 µg/mL
same,"PRNT IC50, VACV MV+C'",[10],0.96 µg/mL
same,EC50,[11],0.04 µg/mL
"VACV-249 (antibody, V domains shown, human IgG1, anti-D8) VH: QVQLVESGPGLVKPSQTLSLTCTVSGGSISRGIYYWSWIRQPAGKGLEWIGRIYTSGSTNYNPSLKSRVTISVDTSKNQFSLKLSSVTAADTAVYYCARDGWYGWYLDLWGRGTLVTVSS VL: EIVMTQSPATLSVSPGERATLSCRASQSVSSDLAWYQQKPGQAPRLLIYGASTRATGIPARFSGSGSGTEFTLTISSLQSEDFAVYYCQQYNNWPGTFGGGTKVDIK","PRNT Emax, VACV MV+C'",[12],70%
same,"PRNT IC50, VACV MV+C'",[12],0.2 µg/mL
same,EC50,[13],0.3 µg/mL
same,EC50,[14],2.8 µg/mL
"VACV-128 (antibody, V domains shown, human IgG1, anti-D8) VH: EVQLVQSGAEVKKPGATVKISCKVSGYTFTDYYMHWVQQAPGKGLKWMGLLDPLDGETIYSEKFQGKVTITADTSTDTAYMELSSLRSEDTAVYYCARELTGYLNYWGQGTLVTVSS VL: DIQMTQSPSSLSASVGDRVTITCRASPGICNYLAWYQHKPGKVPKLLIYAASTLQSGVPSRFTGVGSGTNFTLTINNLPPENVATYYCQKYNSAPHTFGQGTKVDIK","PRNT Emax, VACV MV+C'",[12],86%
same,"PRNT IC50, VACV MV+C'",[12],0.5 µg/mL
same,EC50,[13],0.3 µg/mL
same,EC50,[14],1.1 µg/mL
